Experimental data reported in US10450596.

Biological target: histone H3 trimethylated at lysine 9 (H3K9me3) in bulk calf thymus histones (Sigma)

B1: GST-tagged KDM4C (BPS Bioscience) (protein)
chain: EVAEVESPLNPSCKIMTFRPSMEEFREFNKYLAYMESKGAHRAGLAKVIPPKEWKPRQCYDDIDNLLIPAPIQQMVTGQSGLFTQYNIQKKAMTVKEFRQLANSGKYCTPRYLDYEDLERKYWKNLTFVAPIYGADINGSIYDEGVDEWNIARLNTVLDVVEEECGISIEGVNTPYLYFGMWKTTFAWHTEDMDLYSINYLHFGEPKSWYAIPPEHGKRLERLAQGFFPSSSQGCDAFLRHKMTLISPSVLKKYGIPFDKITQEAGEFMITFPYGYHAGFNHGFNCAESTNFATVRWIDYGKVAKLCTCRKDMVKISMDIFVRKFQPDRYQLWKQGKDIYTIDHTKPTPASTPEVKAWLQRRRKVRKASRS
in vitro histone demethylation assay; H3K9me3 assessed by Western blot: Addition of purified KDM4C to histone substrates resulted in demethylation of H3K9me3
